Assay in all cases: cell-based or functional assay
Assay [1] has as its target human Kv1.1 potassium channel (α-subunit) (human) (UniProt Q09470).
Assay [2] concerns the target human Kv1.2 potassium channel (α-subunit) (human) (UniProt P16389).
The target of assay [3] is human Kv1.3 potassium channel (potassium voltage-gated channel subfamily A member 3, α-subunit) (human) (UniProt P22001).
Assay [4] concerns the target human Kv1.6 potassium channel (α-subunit) (human) (UniProt P17658).

human Kv1.6 potassium channel (α-subunit) (human), sequence (P17658 whole entry): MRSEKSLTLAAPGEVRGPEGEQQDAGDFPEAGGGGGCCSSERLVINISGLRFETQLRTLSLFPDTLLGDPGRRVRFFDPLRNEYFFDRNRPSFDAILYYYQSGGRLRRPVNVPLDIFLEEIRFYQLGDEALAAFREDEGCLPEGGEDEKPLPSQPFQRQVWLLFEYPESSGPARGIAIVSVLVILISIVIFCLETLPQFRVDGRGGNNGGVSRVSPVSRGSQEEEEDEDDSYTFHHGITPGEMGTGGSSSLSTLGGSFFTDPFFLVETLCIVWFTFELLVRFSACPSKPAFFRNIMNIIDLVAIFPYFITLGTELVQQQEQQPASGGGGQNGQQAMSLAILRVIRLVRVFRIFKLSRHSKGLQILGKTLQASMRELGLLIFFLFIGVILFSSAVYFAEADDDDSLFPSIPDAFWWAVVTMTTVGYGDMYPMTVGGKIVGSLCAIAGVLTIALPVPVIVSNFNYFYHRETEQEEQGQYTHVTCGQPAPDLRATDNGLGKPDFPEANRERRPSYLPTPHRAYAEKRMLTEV
human Kv1.1 potassium channel (α-subunit) (human), sequence (Q09470 whole entry): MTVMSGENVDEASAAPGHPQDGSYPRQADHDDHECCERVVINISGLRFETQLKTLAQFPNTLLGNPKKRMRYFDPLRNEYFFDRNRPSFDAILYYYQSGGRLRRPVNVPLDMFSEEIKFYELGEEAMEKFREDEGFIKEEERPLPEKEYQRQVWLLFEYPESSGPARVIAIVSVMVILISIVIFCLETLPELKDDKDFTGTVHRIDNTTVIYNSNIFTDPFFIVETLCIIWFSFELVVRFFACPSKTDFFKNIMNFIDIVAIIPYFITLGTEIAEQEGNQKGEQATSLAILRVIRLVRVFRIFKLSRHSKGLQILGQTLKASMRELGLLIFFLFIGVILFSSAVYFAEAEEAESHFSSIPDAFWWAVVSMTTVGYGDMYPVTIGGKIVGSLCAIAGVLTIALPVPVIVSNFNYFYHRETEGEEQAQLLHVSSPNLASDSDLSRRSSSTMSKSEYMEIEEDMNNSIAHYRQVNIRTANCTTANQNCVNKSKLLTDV
human Kv1.3 potassium channel (potassium voltage-gated channel subfamily A member 3, α-subunit) (human), sequence (P22001 whole entry): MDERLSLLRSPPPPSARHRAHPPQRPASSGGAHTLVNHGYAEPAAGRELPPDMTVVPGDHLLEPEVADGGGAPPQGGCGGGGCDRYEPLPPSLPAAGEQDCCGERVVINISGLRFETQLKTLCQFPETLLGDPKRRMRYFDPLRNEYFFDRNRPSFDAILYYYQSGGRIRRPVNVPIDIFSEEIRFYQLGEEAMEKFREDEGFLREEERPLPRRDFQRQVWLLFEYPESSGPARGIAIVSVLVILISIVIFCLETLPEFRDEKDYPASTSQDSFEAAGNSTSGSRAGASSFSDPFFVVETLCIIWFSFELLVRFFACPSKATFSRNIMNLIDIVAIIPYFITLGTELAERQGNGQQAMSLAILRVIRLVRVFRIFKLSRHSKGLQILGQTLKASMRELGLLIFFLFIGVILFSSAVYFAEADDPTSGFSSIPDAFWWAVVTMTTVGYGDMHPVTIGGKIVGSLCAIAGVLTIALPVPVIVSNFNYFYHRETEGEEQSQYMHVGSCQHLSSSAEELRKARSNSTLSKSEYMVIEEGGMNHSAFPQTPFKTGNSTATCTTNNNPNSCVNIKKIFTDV
human Kv1.2 potassium channel (α-subunit) (human), sequence (P16389 whole entry): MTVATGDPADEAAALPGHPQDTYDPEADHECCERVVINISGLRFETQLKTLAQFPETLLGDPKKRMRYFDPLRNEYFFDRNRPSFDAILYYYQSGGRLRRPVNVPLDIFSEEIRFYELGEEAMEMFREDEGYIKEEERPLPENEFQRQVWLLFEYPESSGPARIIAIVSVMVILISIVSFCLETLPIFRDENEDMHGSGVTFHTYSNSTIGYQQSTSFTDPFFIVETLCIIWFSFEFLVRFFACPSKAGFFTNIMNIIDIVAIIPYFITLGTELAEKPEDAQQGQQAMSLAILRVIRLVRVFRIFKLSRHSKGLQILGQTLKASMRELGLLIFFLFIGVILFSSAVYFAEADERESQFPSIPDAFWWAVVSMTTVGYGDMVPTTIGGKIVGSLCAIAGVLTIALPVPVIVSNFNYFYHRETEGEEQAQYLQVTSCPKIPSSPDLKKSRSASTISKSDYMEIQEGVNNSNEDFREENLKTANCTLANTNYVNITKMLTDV

As to Moka1 (peptide), the Potency IC50 (patch clamp) was above 3000 nM in assay [1], 275 nM in assay [2], 9 nM in assay [3] and above 3000 nM in assay [4]. In assay [1], this substance gave a Selectivity Kv1.1/Kv1.3 above 300. The Selectivity Kv1.2/Kv1.3 in assay [2] was found to be 31. Besides, the Selectivity Kv1.6/Kv1.3 in assay [4] is above 300.

As to ShK (peptide), the values for the Potency IC50 (patch clamp) in assay [2], in assay [3] and in assay [4] were 11 nM, 0.017 nM and 0.19 nM, respectively.

For Vm24 (peptide), in assay [1], the Potency IC50 (patch clamp) was 0.097 nM and the Selectivity Kv1.1/Kv1.3 came to 0.65. Besides, in assay [2], the Potency IC50 (patch clamp) was 4.7 nM and the Selectivity Kv1.2/Kv1.3 worked out at 31. The Potency IC50 (patch clamp) in assay [3] was determined as 0.15 nM. In assay [4], this substance displayed a Potency IC50 (patch clamp) of 21 nM and a Selectivity Kv1.6/Kv1.3 of 139.

The values above are taken from patent US20220251151A1.
